In this experiment the target is T1, full length CD32a on stably transfected IIA1.6 cells (human, UniProt P12318 34-317).
T1 construct: whole, on cells; also called IIA1.6-CD32a; CD32a-expressing IIA1.6 cells
T1 sequence (looked up): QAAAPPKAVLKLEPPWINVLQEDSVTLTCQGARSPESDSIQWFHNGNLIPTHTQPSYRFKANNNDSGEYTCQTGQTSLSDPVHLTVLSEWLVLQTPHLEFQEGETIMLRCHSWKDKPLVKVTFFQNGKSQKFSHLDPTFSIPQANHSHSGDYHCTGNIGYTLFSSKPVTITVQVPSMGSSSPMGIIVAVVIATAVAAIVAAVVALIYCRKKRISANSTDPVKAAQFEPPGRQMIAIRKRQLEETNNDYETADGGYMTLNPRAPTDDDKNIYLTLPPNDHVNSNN
Description: flow cytometry on IIA1.6-CD32a cells. On the procedure:
After harvesting and counting, IIA1.6 cells stably transfected with full length CD32a and CD32b (van den Herik-Oudijk et al., 1994), control IIA1.6 cells and Daudi-luc cells were resuspended in PBS (1×10⁶ cells/ml). Cells were put in 96-well V-bottom plates (100 μl/well) and washed twice with FACS buffer (PBS supplemented with 0.1% BSA and 0.02% Na-azide). Thereafter, 50 μl of serially diluted HuMab in FACS buffer was added to the cells and incubated for 30 minutes at 4° C. After washing three times with FACS buffer, 50 μl of phycoerythrin (PE)-conjugated rabbit anti-human IgG (Jackson ImmunoResearch Europe), diluted 1:200 in FACS buffer, was added. After 30 minutes at 4° C. (in the dark), cells were washed three times, and specific binding of the HuMabs was detected by flow cytometry on a FACSCalibur (BD Biosciences). […] Binding curves were analyzed using non-linear regression (sigmoidal dose-response with variable slope) using GraphPad Prism V4.03 software (GraphPad Software, San Diego, Calif., USA).
(In general: A flow cytometer gives signals particle by particle.)

A word on the EC50: it is the concentration at which the effect is half-maximal. Lower therefore signals greater potency.

B1: Antibody 038 (antibody, human IgG1, V domains shown)
VH: QVQLVESGGGVVQPGRSLRLSCAASGFTFSTYGMHWVRQAPGKGLEWVAVISHDGSDKYYADSVKGRFTISRDNSKNTLYLQMNSLRAEDTAVYYCARDQSIIETFDYWGQGTLVTVSS
VL: EIVLTQSPATLSLSPGERATLSCRASQSVSSYLAWYQQKPGQAPRLLIYDASNRATGIPARFSGSGSGTDFTLTISSLEPEDFAVYYCQQRSNWGFTFGPGTKVDIKR
notes: Human antibody; also called HuMab 038
For B1, the EC50 stood at 3.48 nM.
